# Measurements: patent US20140161821A1, “TREATMENT WITH ANTI-PCSK9 ANTIBODIES” (PFIZER INC., priority 2011, published 2014)
# B1: L1L3: humanized (<5% murine residues) monoclonal PCSK9 antagonist antibody that binds to secreted PCSK9; VH SEQ ID NO: 11, VL SEQ ID NO: 12 (antibody, V domains shown)
# VH: QVQLVQSGAEVKKPGASVKVSCKASGYTFTSYYMHWVRQAPGQGLEWMGEISPFGGRTNYNEKFKSRVTMTRDTSTSTVYMELSSLRSEDTAVYYCARERPLYASDLWGQGTTVTVSS
# VL: DIQMTQSPSSLSASVGDRVTITCRASQGISSALAWYQQKPGKAPKLLIYSASYRYTGVPSRFSGSGSGTDFTFTISSLQPEDIATYYCQQRYSLWRTFGQGTKLEIK
# modifications: heavy chain variable region; light chain variable region
# Key:
# [1] = Example 2 clinical study: safety and adverse events; type: in vivo; conditions: single IV 0.3-18 mg/kg
# Method: (§1) The study entailed a randomized, placebo-controlled, ascending, single dose study of L1L3. The subjects, investigator, and site personnel (except site personnel responsible for drug preparation) were blinded to treatment assignments, as was the CRO designee; while the Sponsor clinical research team was unblinded. The study was conducted in 6 planned cohorts of 8 subjects per cohort in an effort to seek a maximum tolerated dose or MTD (total of approximately 48 subjects). […] Doses were administered following an overnight fast as an intravenous infusion over 60 minutes. […] Infusions will be administered as a single infusion over 60 minutes.
# The dosing schedule was adjusted to allow administration of lower, intermediate, or higher doses to obtain a maximum tolerated dose and no effect dose. Each subject enrolled into the study, regardless of cohort assignment, received only one dose of study drug during their study participation.
# [2] = target: T1, PCSK9 (Homo sapiens, UniProt Q8NBP7); experiment: Example 2 clinical study, single escalating IV doses: fasting lipids; type: in vivo
# T1 construct: PCSK9 antagonist antibody that antagonizes circulating PCSK9; endogenous in cells; host or cells: human subjects in clinical trials (in vivo, circulating PCSK9)
# T1 sequence (Q8NBP7 153-692): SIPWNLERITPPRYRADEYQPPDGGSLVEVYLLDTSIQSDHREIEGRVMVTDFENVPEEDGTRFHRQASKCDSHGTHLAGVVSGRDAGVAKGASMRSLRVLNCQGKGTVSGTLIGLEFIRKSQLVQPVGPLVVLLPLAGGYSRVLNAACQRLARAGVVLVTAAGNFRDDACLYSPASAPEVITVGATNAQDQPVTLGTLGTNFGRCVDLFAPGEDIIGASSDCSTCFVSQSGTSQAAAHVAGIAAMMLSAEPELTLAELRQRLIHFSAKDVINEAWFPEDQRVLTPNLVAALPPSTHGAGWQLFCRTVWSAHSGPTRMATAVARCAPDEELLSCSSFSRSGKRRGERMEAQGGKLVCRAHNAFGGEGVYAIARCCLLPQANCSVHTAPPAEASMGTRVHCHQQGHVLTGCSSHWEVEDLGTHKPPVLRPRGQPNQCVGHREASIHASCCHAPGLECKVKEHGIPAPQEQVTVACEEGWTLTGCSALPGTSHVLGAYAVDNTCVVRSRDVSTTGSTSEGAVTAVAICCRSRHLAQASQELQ
# T1 sequence (Q8NBP7 31-152 partner limits assumed): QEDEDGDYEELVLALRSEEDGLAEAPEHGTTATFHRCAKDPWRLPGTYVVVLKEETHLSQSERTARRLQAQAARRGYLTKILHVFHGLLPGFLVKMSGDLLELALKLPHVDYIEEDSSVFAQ
# Method: as §1
# Change in serum lipids (total cholesterol, LDL, HDL, Triglycerides, Non-HDL-C and Apoprotein B) were assessed.
# Collection of fasting lipid profile was performed after at least a 10-hour fast (total cholesterol, LDL, HDL, Non-HDL Cholesterol, Apo B and triglycerides).
molecule,measurement,setting,value
B1,Discontinuation due to treatment emergent adverse events (TEAEs),[1],no subjects discontinued
same,Intensity of TEAEs,[1],majority of TEAEs were mild in intensity; none were severe
same,Serious adverse events,[1],no serious adverse events occurred
same,"Fasting apolipoprotein B (apo B), % below baseline","[2]; 0.3 mg/kg, by day 7",about 25%
same,"Fasting apolipoprotein B (apo B), % below baseline","[2]; 1 mg/kg, by day 14",about 40%
same,"Fasting apolipoprotein B (apo B), % below baseline","[2]; 3 mg/kg, by day 14",about 40%
same,"Fasting apolipoprotein B (apo B), % below baseline","[2]; 3 mg/kg, by day 28",about 50%
same,Fasting LDL-C levels,"[2]; 6 mg/kg or 12 mg/kg, by day 14 post-dosing",about 55 mg/dL
same,"Fasting apolipoprotein B (apo B), % below baseline","[2]; 6 mg/kg, by day 14",about 40%
same,"Fasting apolipoprotein B (apo B), % below baseline","[2]; 6 mg/kg, by day 21",about 50%
same,"Fasting apolipoprotein B (apo B), % below baseline","[2]; 6 mg/kg, generally, remainder of the study",> 30%
same,LDL-C percentage change from baseline (lowering),"[2]; 18 mg/kg, FIG. 2",up to 83%
same,Fasting LDL-C levels,"[2]; 18 mg/kg, by day 14 post-dosing",about 20 mg/dL
same,Fasting LDL-C levels,"[2]; 1, 3, 6, 12, or 18 mg/kg, by day 14 post-dosing",≤ 70 mg/dL
same,"Fasting apolipoprotein B (apo B), % below baseline","[2]; 12 or 18 mg/kg, by day 14, baseline about 119 mg/dL",about 50%
same,"Fasting apolipoprotein B (apo B), % below baseline","[2]; 12 or 18 mg/kg, remainder of the study after day 14",≥ 50%
same,Earliest day LDL-C lowering effects were seen,[2]; all dosage groups,3 days
same,Day of maximum percentage LDL-C lowering,"[2]; in general, all dosage groups",Day 15 or Day 22
same,Duration of maximum LDL-C lowering effect,[2]; single 0.3 mg/kg,7 days
same,"Fasting total cholesterol (TC), % reduced","[2]; single 0.3 mg/kg, by about day 9",about 25%
same,Fasting LDL-C levels,"[2]; single 0.3 mg/kg, day 7 post-dosing",about 85 mg/dL
same,Fasting LDL-C levels,"[2]; single 0.3 mg/kg, until about 10 days post-dosing",below 100 mg/dL
same,Duration of maximum LDL-C lowering effect,[2]; single 1.0 mg/kg,14 days
same,"Fasting total cholesterol (TC), % below baseline","[2]; single 1 mg/kg, by about day 15",about 36%
same,Fasting LDL-C levels,"[2]; single 1 mg/kg, day 14 post-dosing",about 65 mg/dL
same,Fasting LDL-C levels,"[2]; single 1 mg/kg, until about 21 days post-dosing",below 100 mg/dL
same,Duration of maximum LDL-C lowering effect,[2]; single 3.0 mg/kg,up to 4 weeks
same,"Fasting total cholesterol (TC), % below baseline","[2]; single 3 mg/kg, by about day 9",about 30%
same,"Fasting total cholesterol (TC), % below baseline","[2]; single 3 mg/kg, by about day 22",about 40%
same,Fasting LDL-C levels,"[2]; single 3 mg/kg, day 14 post-dosing",about 70 mg/dL
same,Fasting LDL-C levels,"[2]; single 3 mg/kg, day 21 post-dosing",about 60 mg/dL
same,"LDL-C levels, % below baseline","[2]; single 3 mg/kg, maintained up to 29 days post administration",> 60%
same,"LDL-C levels, % below baseline","[2]; single 3 mg/kg, maintained up to 50 days post administration",> 20%
same,Fasting LDL-C levels,"[2]; single 3 mg/kg, until about 36 days post-dosing",below 100 mg/dL
same,"LDL-C levels, % below baseline","[2]; single 6 mg/kg or 12 mg/kg, maintained up to 43 days post administration",> 60%
same,Duration of maximum LDL-C lowering effect,"[2]; single 6 mg/kg, 12 mg/kg, and 18 mg/kg",more than 6 weeks
same,"Fasting total cholesterol (TC), % below baseline","[2]; single 6 mg/kg, by about day 9 until about day 52 post-dosing",≥ 30%
same,"Fasting total cholesterol (TC), % below baseline, in a number of subjects","[2]; single 6 mg/kg, by day 30 post-dosing",> 50%
same,Fasting LDL-C levels,"[2]; single 6 mg/kg, for about 42 days post-dosing",below 50 mg/dL
same,Fasting LDL-C levels,"[2]; single 6 mg/kg, until at least about 57 days post-dosing",below 100 mg/dL
same,Fasting LDL-C levels,"[2]; single 12 mg/kg, until at least about 57 days post-dosing (end of study)",≤ 60 mg/dL
same,"LDL-C levels, % below baseline","[2]; single 18 mg/kg, maintained at least up to 57 days post administration",> 65%
same,Fasting LDL-C levels,"[2]; single 18 mg/kg, until at least about 57 days post-dosing",below 50 mg/dL
same,"Fasting total cholesterol (TC), % below baseline","[2]; single 12 or 18 mg/kg, by about day 9, lasting at least to day 57, baseline about 230 mg/dL",≥ 30%
same,"Fasting total cholesterol (TC), % below baseline, in a number of subjects","[2]; single 12 or 18 mg/kg, by day 15 post-dosing",> 50%
same,mean percentage change from baseline of fasting LDL-C,"[2]; single IV 0.3 mg/kg, visit day 1",0.000%
same,mean percentage change from baseline of fasting LDL-C,"[2]; single IV 0.3 mg/kg, visit day 2",−15.8%
same,mean percentage change from baseline of fasting LDL-C,"[2]; single IV 0.3 mg/kg, visit day 3",−14.13%
same,mean percentage change from baseline of fasting LDL-C,"[2]; single IV 0.3 mg/kg, visit day 4",−30.14%
same,mean percentage change from baseline of fasting LDL-C,"[2]; single IV 0.3 mg/kg, visit day 8",−42.86%
same,mean percentage change from baseline of fasting LDL-C,"[2]; single IV 0.3 mg/kg, visit day 15",−23.68%
same,mean percentage change from baseline of fasting LDL-C,"[2]; single IV 0.3 mg/kg, visit day 22",−11.36%
same,mean percentage change from baseline of fasting LDL-C,"[2]; single IV 0.3 mg/kg, visit day 29",−9.12%
same,mean percentage change from baseline of fasting LDL-C,"[2]; single IV 1 mg/kg, visit day 1",0.000%
same,mean percentage change from baseline of fasting LDL-C,"[2]; single IV 1 mg/kg, visit day 2",−0.33%
same,mean percentage change from baseline of fasting LDL-C,"[2]; single IV 1 mg/kg, visit day 3",−9.79%
same,mean percentage change from baseline of fasting LDL-C,"[2]; single IV 1 mg/kg, visit day 4",−19.14%
